± gives the uncertainty stated by the source.

The data set in a line: amyloid nucleation score (Sup35N fusion, yeast selection) (log enrichment); library NNK3; higher = more nucleation; inactive = no reads after selection. A digest of the protocol: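 Nucleation score is defined as the DiMSum log enrichment of output over input reads, with centring on the mode score of non-aggregating sequences. A minimum of 100 input reads was required for each sequence. Reads came from Illumina sequencing of plasmid inserts from psi-negative yeast expressing Sup35N fused to peptides of 20 random codons, induced with 100 μM copper sulfate for 24 hours and grown 7 days at 30°C on medium lacking adenine and uracil.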
On to NSLNKGKFHWVNIGTSSLQG, for which the amyloid nucleation score entry is “inactive”. Take SNITSCLNSQRKMDLAFYRV: the amyloid nucleation score result is “inactive”. As to EGYRFCCGMLIN, the amyloid nucleation score result was “inactive”. For the substance FLNLNNMGLSYMAVSLVEG, the amyloid nucleation score entry is “inactive”. As for TYVARIVN, the amyloid nucleation score result is “inactive”. With VICFAARALVYC, the amyloid nucleation score result is “inactive”. As to YLLFIWSAYENKVGIGYITE, the amyloid nucleation score result is “inactive”. As to SSLGWFQVSHFRYWNRRCGL, the amyloid nucleation score result is “inactive”. Turning to WGFVIIYELKNLMCVMRPPS, the amyloid nucleation score result was “inactive”.

In turn, VKTESEVLLSRMSTYSWENA returned an amyloid nucleation score of 1.23 ± 0.17. In the case of FGSPWPRLQMTQLLIVAMTL, the amyloid nucleation score entry was “inactive”.

On to VFTYCYVFHQVVSLRQARLR, for which the amyloid nucleation score entry is “inactive”. YYSFKIDRLRFVRM: the amyloid nucleation score entry is “inactive”. Consider INYQLMW, for which the amyloid nucleation score turned out to be 0.9 ± 0.1. Regarding SWDVGGLYCKINGPIMLSLD, the amyloid nucleation score entry was “inactive”. In the case of LYFACPTLYLFRRRVNVTHP, the amyloid nucleation score result was “inactive”. On to MVLRVLNYFINFCATVLAGS, for which the amyloid nucleation score result was “inactive”. Consider TDYPLLMLL, for which the amyloid nucleation score result is “inactive”. Consider TCSVCMGQVTMVIRYVNSNC, for which the amyloid nucleation score result was “inactive”. In the case of LEERLNFGKYAVGDGYTLV, the amyloid nucleation score result is “inactive”. For the substance MLDSRYGKMCRGEW, the amyloid nucleation score entry was “inactive”. As to CLGGHLTHLHL, the amyloid nucleation score result is “inactive”. To CFVAILNVIFGWSY belongs 1.43 ± 0.069; to GVQAITGPLSVQDVYRWAKP, “inactive”; to IYSALYLYRTPKSVYQVTQS, -0.575 ± 1. To CFTRLVRRGNSQIKRAPGEP belongs “inactive”; to YHFLACCKLVGRRWWFGLQR, “inactive”; to NINRSPWLIGWGLPKLKRDH, “inactive”.

In the case of ISTKGITTRSLLDFKILCIT, the amyloid nucleation score entry is “inactive”. Take AWNFNLKLKELRKTMTS: the amyloid nucleation score result is “inactive”.

Substance VKVES gave an amyloid nucleation score of -0.195 ± 1.1. THRFVVLCEIITNPTEMGSG: the amyloid nucleation score turned out to be 0.703 ± 0.35. With MILFKIEELHCQHVSHCG the entry was “inactive”; with WSCASSCFY, “inactive”. To FIDFGIWC belongs “inactive”. As for GILIFTGYEDIFSCESDGSW, the amyloid nucleation score entry was “inactive”. With CLALYRGRMLSGKVRRCTTS the entry was “inactive”; with VMCLRTFGASSFFI, -0.023 ± 0.55. With QIVFIRPKNL, the amyloid nucleation score entry was “inactive”. Turning to HNGARG, the amyloid nucleation score entry was “inactive”. To FLNKITNVSIYLIGTRETDV belongs 2.81 ± 0.064; to NPVGT, “inactive”. ASRIDNIDWGGRKKLRNVEG: the amyloid nucleation score entry is “inactive”. As for RIYSDGRSSFSRQLVWVCSR, the amyloid nucleation score result was “inactive”.

Take DLFDSRVVSSDAVSCYYAAS: the amyloid nucleation score entry was “inactive”. In the case of RYFPTV, the amyloid nucleation score entry is “inactive”.

As for MVVYKNYM, the amyloid nucleation score result is “inactive”. With YTWLVTVTDDGCRFEFSCEF, the amyloid nucleation score entry is “inactive”. RTINWASCQSWLKVTSPKGL: the amyloid nucleation score entry is “inactive”. To IAVVTSNWVADLSPGNHTCM belongs -0.49 ± 0.96; to FLRPV, “inactive”; to SWIRRRPAVRLDRRMPRLAF, “inactive”. Consider VIRNYTIEIMWVWDQKADVQ, for which the amyloid nucleation score entry is “inactive”.

For SYMVKM, the amyloid nucleation score result is “inactive”.

On to SWTQVKRYSRSTIAILAFHT, for which the amyloid nucleation score entry is “inactive”. Consider SRYFYDADYLFGGHSVAGQI, for which the amyloid nucleation score entry is “inactive”. With CLRVICCFWKRPGFDWYLEM, the amyloid nucleation score result was “inactive”. In the case of NCRGPCFKSKCSLIPRYTFV, the amyloid nucleation score result was “inactive”.

For GWRSTYYECSGKSVFNAG, the amyloid nucleation score was -0.217 ± 0.8. Consider LAFCIMNRQFLPLYLPTCSV, for which the amyloid nucleation score result is “inactive”. Consider MILCCNRRLFGRRSLANLCW, for which the amyloid nucleation score result is “inactive”. Regarding RGRRSCRARRYTTGAFHELL, the amyloid nucleation score entry was “inactive”. As to ILFRGPKLCKNGHVL, the amyloid nucleation score result is “inactive”. For RRVSMPLSGDKSRSVEGVRR, the amyloid nucleation score result was “inactive”. As for RPNVDWKMPRFCFPSQSKTG, the amyloid nucleation score entry was “inactive”.

Take VLYCGHCFVFTRCSGWVQLG: the amyloid nucleation score result was “inactive”. For SHNLSWDIGHLGIV, the amyloid nucleation score entry was “inactive”. GDYDTMAEVKPFLDEKC: the amyloid nucleation score result was “inactive”. For NSGLSG, the amyloid nucleation score result is “inactive”. QILFTQILLNSGEEGLSFVS displayed an amyloid nucleation score of 0.479 ± 0.18. Consider SDEGRAIPSATPFWEYCLMW, for which the amyloid nucleation score result is “inactive”.

For the substance LVGMDTGIVNDSIDGPGYWV, the amyloid nucleation score entry is “inactive”.

In turn, MCWLVWLSPRSNDCVDHRFD displayed an amyloid nucleation score of -0.163 ± 0.46. In turn, TSDVEVSRMIVCIWTSFIYQ gave an amyloid nucleation score of 0.142 ± 0.52. Turning to IMRMRLVCWTYKYNSLLPFV, the amyloid nucleation score entry is “inactive”. In turn, VTWIYSSNGVWINGDKSFML displayed an amyloid nucleation score of 1.22 ± 0.079. As to RRYGYNLVTL, the amyloid nucleation score entry is “inactive”. As for RWSGHTWTCVQDRMVCICNS, the amyloid nucleation score result was “inactive”. To FFFKSLEVSVTQR belongs “inactive”. Substance INMALYSSLNLVG yielded an amyloid nucleation score of 1.32 ± 0.078. On to LSDMNVNKRMCCMVRDSNMR, for which the amyloid nucleation score result is “inactive”. As for WFCVLMDSAWDCRVIGGGGR, the amyloid nucleation score worked out at 1.1 ± 0.13. To HFMMYMLQRVHELFILSKSM belongs “inactive”; to GYAHLLMANLRWSSTRLA, “inactive”; to RQGAKVRTGGHKKQSGSSCR, “inactive”. As to SCLHSSSFCKR, the amyloid nucleation score result was “inactive”. Turning to DSTVTSE, the amyloid nucleation score entry was “inactive”. CNFQYILCRIM registered an amyloid nucleation score of 2.15 ± 0.057. KKGGVVINVSTNRIRTLTCP: the amyloid nucleation score result is “inactive”.

In the case of SIVSRLF, the amyloid nucleation score result was “inactive”.

On to CLISQFVY, for which the amyloid nucleation score result is “inactive”. To GNGIFGLSPR belongs -1.04 ± 1.4; to SWRKCPNLPSCKTIPNAWVL, “inactive”.

Consider KSDEVTFMWHSHGIRMFR, for which the amyloid nucleation score was 0.357 ± 0.4. Take GISFSFRFLNENFHCVFRRA: the amyloid nucleation score result was “inactive”. On to IRFPTHSMYSLLYKRFLSPD, for which the amyloid nucleation score is -0.744 ± 1.8. With MRFADFCRGYFRRGSYPLGF the entry was “inactive”; with ETTYGFDKIYGVEYVCGLCR, “inactive”; with RSSWK, “inactive”. With WVRVVFSGSRYRTVCSGSRC the figure was -0.788 ± 1.4; with ENWDSILCKWRGAGMRGSAW, “inactive”. As for FSREYP, the amyloid nucleation score entry was “inactive”.

As to TDPGILYMSCIRVMLGLFWD, the amyloid nucleation score entry is “inactive”. The substance YSSANNCNWC yielded an amyloid nucleation score of 1.7 ± 0.077. As to SAECSVPEYVHRHKVIWHGL, the amyloid nucleation score entry is “inactive”. As to GSCSIGSINIAFASSSIVYG, the amyloid nucleation score entry was “inactive”. For YYDCIALFNSKQGSYLHYWY, the amyloid nucleation score result is “inactive”.

On to PFYFCGHSQYSWTAW, for which the amyloid nucleation score result was “inactive”. For IFWVSRSDA, the amyloid nucleation score result is “inactive”. To NDMFRVSCSQNSESQYNLNG belongs “inactive”; to MMDSWYVVVRYLSTLYNCDI, “inactive”; to FCRHVKFYRMRAACVDNRRI, “inactive”. In the case of KRFGFVNFNCYDLYIKFEIM, the amyloid nucleation score is 1.28 ± 0.13. Turning to HSLTATINTGKLYKSVSKHG, the amyloid nucleation score entry was “inactive”.

Consider GLDLRTCGCYHSIP, for which the amyloid nucleation score entry was “inactive”. Turning to LLELRVVRLRTNVAVVHIYV, the amyloid nucleation score entry was “inactive”. Substance SICTLFACHAFAGRYTTQGG yielded an amyloid nucleation score of 1.04 ± 0.2. With TRQNWENNFLLWYGEVMS, the amyloid nucleation score entry is “inactive”. As to LVESDLYVCTTVRGQVSMKG, the amyloid nucleation score entry was “inactive”. With LFYFKRFWYVLLLANLLDM the entry was “inactive”. As for SRNFTRHILHDLHYAGILKA, the amyloid nucleation score entry was “inactive”.

Consider SRSMDGSVCAFRMDMSSMD, for which the amyloid nucleation score entry is “inactive”. Turning to GWIAYRGSDR, the amyloid nucleation score result is “inactive”.

For the substance LGVFSRRACYLFRICLTELI, the amyloid nucleation score entry is “inactive”. In the case of ISFLADYRQPSVKFVGGYVM, the amyloid nucleation score result was “inactive”. Turning to MVNTKTISYWPKDSQHLRV, the amyloid nucleation score entry was “inactive”.

For the substance LCMADYVRGTWVYVPYFWMC, the amyloid nucleation score entry is “inactive”.

For VYHFSGWCRHSCSSLQKSHD, the amyloid nucleation score entry is “inactive”.

With TYGQLCIKVTGLGHFYRPMG, the amyloid nucleation score worked out at 0.922 ± 0.18. RPRHDHWNDVNDATSYRYVM: the amyloid nucleation score entry is “inactive”. With KTTTY, the amyloid nucleation score was -0.2 ± 0.54.
